Experimental data from paper PMC5404189.

Molecular target: extracellular fibrinogen binding protein (Staphylococcus aureus) (UniProt A6QG59)
Experiment: ELISA

Sequence of UniProt A6QG59 (A6QG59 30-165): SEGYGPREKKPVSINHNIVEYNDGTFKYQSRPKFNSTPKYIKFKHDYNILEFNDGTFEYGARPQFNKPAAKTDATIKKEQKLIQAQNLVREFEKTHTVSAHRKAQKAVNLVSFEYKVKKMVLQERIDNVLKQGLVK

With human complement C3 (natural protein) the reBC at 10% plasma was over 80%.
